# Results published in the RNAGym collection of RNA variant scans (doi:10.1073/pnas.2313332121).
# B1: TPR t1 (parent)
# chain: GACCAAUCUGCCCUCAGAGCUCGAGAACAUCUUCGGAUGCAGAGGAGGCAGGCUUCGGUGGCGCGAUAGCGCCAACGUCCUCAACCUCCAAUGCAUCCCACCACAUGAUGAUGCCUGAAGAGCCUUGGUUUUUUG
# Variants of: B1
# Test: polymerase ribozyme fitness, log enrichment relative to wild type (log ratio); higher = more active; in vitro selection for triplet polymerase activity
# In short: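 Streptavidin-bead capture of gel-excised extended constructs, followed by RT-PCR, closed a single triplicate in vitro selection round. That round began by annealing PCR-built, transcribed mutant libraries of each subunit of a heterodimeric triplet polymerase ribozyme with a biotinylated primer, the partner subunit and triplets, then incubating them frozen at −7 °C. After Illumina sequencing of inputs and outputs, genotypes needed ≥10 input reads and ≥1 read per output. Fitness is the base-2 logarithm of genotype enrichment over wild-type enrichment, using inverse-variance-weighted replicate averages.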
row,Variant,polymerase ribozyme fitness (log ratio)
1,GACCAAUCUGCCCUCAGAGCUCGAGAACAUCUUCGGGUGCAGAGGAGGCAGGCUUCGGUGGAGCGAUAGCGCCAACGUCCUCAAUCUCCAAUGCAUCCCACCACAUGAUGAUGCCUGAAGAGCCUUGGUUUUUUG,-5.14
2,GACCAAUCUGCCCUCAGAGCUCGAGAACAUCUUCGGAUGCAGAGUAGGCAGGCUUCGGUGGCGCGAUAGCGCCAACGUCCUCAACCUCCCAUGCAUCCCACCACAUGAUGAUGCCUGAAGAGCCUUGGUUUUUUG,-1.56
3,GACCAAUCUGCCCUCAGAGCUCGAGAACAUCUUCGGAUGCAGAGGAGGCCGCCUUCGGUGGCGCGAUAGCGCUAACGUCCUCAACCUCCAAUGCAUCCCACCACAUGAUGAUGCCUGAAGAGCCUUGGUUUUUUG,-4.07
4,GACCAAUCUGCCCUCAGAGCUCGAGAACAUCUUCGGAUGCAGAGGAGGCAGGCUUCGGUGGCGCGAUAGCGCCAACAUCCUCAACCACCAAUGCAUCCCAGCACAUGAUGAUGCCUGAAGAGCCUUGGUUUUUUG,-2.13
5,GACCAAUCUGCCCUCAGAGCUCGAGAACAUCUUCGGAUGCAGAGAAGGCAGGCUUCGGUGGCGUGAUAGCGCCAACGUCCUCGACCUCCAAUGCAGCCCACCACAUGAUGAUGCCUGAAGAACCUUGGUUUUUUG,-2.56
6,GACCAAUCUGCCCUCAGAGCUCGAGAACAUCUUCGGAUGCAGAGGAGGCAGGCUUCGGUGGCGCGAUAGCGACAACGUCCUCAACCUCCAAUGCAUCCCACCAAUUGAUGAUGCCUGAAAAGCCUUGGUUUUUUG,-2.67
7,GACCAAUCUGCCCUCAGAGCUCGAGAACAUCUUCGGAUGCAGAGGAGGCAGGCUUCGGUGGCGCGAUAGCGCCAACGUGCUCAUCCUCCAAUGCAUCCCACCACAUGAUGAUGCCUGAAGAGCCUUGGUUUUUUG,-2.3
8,GACCAAUCUGCCCUCAGAGCUCGAGAACAUCUUCGGAUACAGAUGAGGCAGGCUUCGGUGGCGCGAUAGCGCCAACGUCCUCAACAUCCAAUGCAUCCCACCACAUGUUGAUGCUUGAAGAGCCUUGUUGUUUUG,-6.8
9,GACCAAUCUGGCCUCAGAGCUCGAGAACAUCUUCGGAUGCAGAGGAGGCAGGCUUCGGUGGCGCGAUAGCGCCAACGUCCUCAACCUCCAAUGCAUCCCACCACAUGAUGAUGCCUGAAGAGCCUUGAUUUUUUG,-1.59
10,GACCAAUCUGCCCUCAGAGCUCGAGAACAUCUUCGGAUGCAGAGGAGGCAGGCUUCGGUGGCGCGAUAGCGCCAACGUCCUCAACCUGCAAUGCAUCCCACCACAUGAUGAUUCCUGAAGAGCCCUGGUUUAUUG,-3.76
11,GACCAUUCUGCCCUCAGAGCUCGAGAACAUCUUCGGAUGCAGAGGAGGCAGGCUUCGGUGGCGCGAUAGAGCCAACGUCCUCAACCUCCAAUGCAUCCCACCACAUGAUGAUGCCUGAAGAGCAUUGGUUUUUUG,0.175
12,GACCAAUCUGUCCUCAGAGCUCGAGAACAUCUUCGGAUGCAGAGGAGGGAGGCUUCGGUGGCGCGAUAGCGCCAACGUCCUCAACCUCCAAUGCCUCCCACCACAUGAUGAUGCCUGAAGAGCCUUGGUUUUUUG,-2.54
13,GACCAAUCUGCCUUCAGAGCUCGAGAACAUCUUCGGAUGCAGAGGAGUCAGGCUUCGGUGGCCCGAUAGCGCCAACGUCCUCAACCUCCAAUGCAUCCCACCACAUGAUCAUGCCUGAAGAGCCUUGGUUUUUUG,-4.51
14,GACCAAUCUGCCCUCAGAGCUCGAGAACAUCUUCGGAUGCAGAGGAGGCAGGCUUCGGUGGCGCGAUAGCGCCAACGUCCCCAACCUCCAAUCCAUCCCACCACAUGAUGAUGCCUGAAGAGCCUUGGUUUUUUG,-1.57
15,GACCAAUCUGCCCUCAGUGCUCGAGAACAUCUUCGGAUGCAGAGGAGGCAGGCUUCGGUGGCGCGAUAGCGCCAACGUACUCAACCUCCAAUACAUCCCACCACAUGAUGAUGCCAGAAGAGCUUUGGUUUUUUG,-6.2
16,GACCAAUCUGCCCUCAGAGCUCGAGAACAUCUUCGGAUGCAGAGGAGUCAGGCCUCGGUGGCGCGAUAGCGCCAACGUCCUGAACCUCCAAUGCAUCCCACCACAUGAUGAUGCGUGAAGAGCCUUGGUUUUUUG,-3.12
17,GACCAAUCUGCCCUCAGAGCUCGAGAACAUCUUCGGAUGCAGAGGAGGCAGGCUUCGGUGGCGCGAUAGCGCCAACGUCCUCAACCACCAAUGCAUCCCACCACAUGAUGAUGCCUGAAGAGCCUUGGUAUUUUG,-0.662
18,GACCAAACCGCCCUCAGAGCUCGAGAACAUCUUCGGAUGCAGAGGAGGCAGGCUUCGGUGGCGCGACAGCGCCAACGUCCUCAACCUCCAAUGGAUCCCACCACAUGAUGAUCCCUGAAGAGCCUUGGUUUUUUG,-7.09
19,GACCAAUCUGCCCUCAGAGCUCGAGAACAUCUUCGGAUGCAGAGAAGGCAGGCUUCGGCGGCGCGAUAGCGCCAACGUCCUCAACAUCCAAUGCAUCCCACCACAUGAUGAUGCCUGAAGAGCCUUGGUUUUUUG,-3.96
20,GACCAAUCUGCCCUCAGAGCUCGAGAACAUCUUCGGAUGCAGAGGAGGCAGGCUUCGGUGGCGCGAUAGCGCCAACGUCCUCAACCUCCAAGGCAUCCCACCACAUGAUGAUGCCUGCAGAGCCUUGGUUUUUUG,-4
21,GACCAAUCUGCCCUCAGAGCUCGAGAACAUCUUCGGAUGCAGAGGAGGCAGGCUUCGGUGGAGCGAUAGUGCCAACGUCCUCAACAUCCAAUGCAUCCCACCACAUGAUGAUGCCUGAAGAGCCUUGGUUUUUUG,-4.26
